Experiment [1] addresses insulin receptor of Mv1Lu cells (mink). In words: cell-based or functional assay.
In experiment [2] the target is LRP-1 in mouse embryonic fibroblasts (MEF cells) (mouse) (UniProt Q91ZX7). In words: co-immunoprecipitation with anti-annexin VI IgG from lysates of MEF cells carrying cell surface-bound 125I-α2M* (1 nM, pH 7.4).
Experiment [3] addresses IGF-I receptor of Mv1Lu cells (mink). In words: cell-based or functional assay.
Experiment [4] deals with acidic pH binding sites of Mv1Lu cells. Nature of the experiment: inhibition of 125I-α2M* binding to Mv1Lu cells at pH 5 or 6.
The target is the same in experiment [5]. In words: inhibition of 125I-α2M* binding to Mv1Lu cells at pH 6.
Experiment [6] concerns the target acidic pH binding sites of MEF cells. In words: competition with 125I-α2M* binding to MEF cells at pH 5.5.
Experiment [7] deals with TβR-V/LRP-1 in mink lung epithelial cells (Mv1Lu cells) (mink). In words: inhibition of 10 nM 125I-IGFBP-3 affinity labeling (binding and DSS cross-linking) of TβR-V on Mv1Lu cells.

Chain of LRP-1 in mouse embryonic fibroblasts (MEF cells) (mouse) (Q91ZX7 20-4545): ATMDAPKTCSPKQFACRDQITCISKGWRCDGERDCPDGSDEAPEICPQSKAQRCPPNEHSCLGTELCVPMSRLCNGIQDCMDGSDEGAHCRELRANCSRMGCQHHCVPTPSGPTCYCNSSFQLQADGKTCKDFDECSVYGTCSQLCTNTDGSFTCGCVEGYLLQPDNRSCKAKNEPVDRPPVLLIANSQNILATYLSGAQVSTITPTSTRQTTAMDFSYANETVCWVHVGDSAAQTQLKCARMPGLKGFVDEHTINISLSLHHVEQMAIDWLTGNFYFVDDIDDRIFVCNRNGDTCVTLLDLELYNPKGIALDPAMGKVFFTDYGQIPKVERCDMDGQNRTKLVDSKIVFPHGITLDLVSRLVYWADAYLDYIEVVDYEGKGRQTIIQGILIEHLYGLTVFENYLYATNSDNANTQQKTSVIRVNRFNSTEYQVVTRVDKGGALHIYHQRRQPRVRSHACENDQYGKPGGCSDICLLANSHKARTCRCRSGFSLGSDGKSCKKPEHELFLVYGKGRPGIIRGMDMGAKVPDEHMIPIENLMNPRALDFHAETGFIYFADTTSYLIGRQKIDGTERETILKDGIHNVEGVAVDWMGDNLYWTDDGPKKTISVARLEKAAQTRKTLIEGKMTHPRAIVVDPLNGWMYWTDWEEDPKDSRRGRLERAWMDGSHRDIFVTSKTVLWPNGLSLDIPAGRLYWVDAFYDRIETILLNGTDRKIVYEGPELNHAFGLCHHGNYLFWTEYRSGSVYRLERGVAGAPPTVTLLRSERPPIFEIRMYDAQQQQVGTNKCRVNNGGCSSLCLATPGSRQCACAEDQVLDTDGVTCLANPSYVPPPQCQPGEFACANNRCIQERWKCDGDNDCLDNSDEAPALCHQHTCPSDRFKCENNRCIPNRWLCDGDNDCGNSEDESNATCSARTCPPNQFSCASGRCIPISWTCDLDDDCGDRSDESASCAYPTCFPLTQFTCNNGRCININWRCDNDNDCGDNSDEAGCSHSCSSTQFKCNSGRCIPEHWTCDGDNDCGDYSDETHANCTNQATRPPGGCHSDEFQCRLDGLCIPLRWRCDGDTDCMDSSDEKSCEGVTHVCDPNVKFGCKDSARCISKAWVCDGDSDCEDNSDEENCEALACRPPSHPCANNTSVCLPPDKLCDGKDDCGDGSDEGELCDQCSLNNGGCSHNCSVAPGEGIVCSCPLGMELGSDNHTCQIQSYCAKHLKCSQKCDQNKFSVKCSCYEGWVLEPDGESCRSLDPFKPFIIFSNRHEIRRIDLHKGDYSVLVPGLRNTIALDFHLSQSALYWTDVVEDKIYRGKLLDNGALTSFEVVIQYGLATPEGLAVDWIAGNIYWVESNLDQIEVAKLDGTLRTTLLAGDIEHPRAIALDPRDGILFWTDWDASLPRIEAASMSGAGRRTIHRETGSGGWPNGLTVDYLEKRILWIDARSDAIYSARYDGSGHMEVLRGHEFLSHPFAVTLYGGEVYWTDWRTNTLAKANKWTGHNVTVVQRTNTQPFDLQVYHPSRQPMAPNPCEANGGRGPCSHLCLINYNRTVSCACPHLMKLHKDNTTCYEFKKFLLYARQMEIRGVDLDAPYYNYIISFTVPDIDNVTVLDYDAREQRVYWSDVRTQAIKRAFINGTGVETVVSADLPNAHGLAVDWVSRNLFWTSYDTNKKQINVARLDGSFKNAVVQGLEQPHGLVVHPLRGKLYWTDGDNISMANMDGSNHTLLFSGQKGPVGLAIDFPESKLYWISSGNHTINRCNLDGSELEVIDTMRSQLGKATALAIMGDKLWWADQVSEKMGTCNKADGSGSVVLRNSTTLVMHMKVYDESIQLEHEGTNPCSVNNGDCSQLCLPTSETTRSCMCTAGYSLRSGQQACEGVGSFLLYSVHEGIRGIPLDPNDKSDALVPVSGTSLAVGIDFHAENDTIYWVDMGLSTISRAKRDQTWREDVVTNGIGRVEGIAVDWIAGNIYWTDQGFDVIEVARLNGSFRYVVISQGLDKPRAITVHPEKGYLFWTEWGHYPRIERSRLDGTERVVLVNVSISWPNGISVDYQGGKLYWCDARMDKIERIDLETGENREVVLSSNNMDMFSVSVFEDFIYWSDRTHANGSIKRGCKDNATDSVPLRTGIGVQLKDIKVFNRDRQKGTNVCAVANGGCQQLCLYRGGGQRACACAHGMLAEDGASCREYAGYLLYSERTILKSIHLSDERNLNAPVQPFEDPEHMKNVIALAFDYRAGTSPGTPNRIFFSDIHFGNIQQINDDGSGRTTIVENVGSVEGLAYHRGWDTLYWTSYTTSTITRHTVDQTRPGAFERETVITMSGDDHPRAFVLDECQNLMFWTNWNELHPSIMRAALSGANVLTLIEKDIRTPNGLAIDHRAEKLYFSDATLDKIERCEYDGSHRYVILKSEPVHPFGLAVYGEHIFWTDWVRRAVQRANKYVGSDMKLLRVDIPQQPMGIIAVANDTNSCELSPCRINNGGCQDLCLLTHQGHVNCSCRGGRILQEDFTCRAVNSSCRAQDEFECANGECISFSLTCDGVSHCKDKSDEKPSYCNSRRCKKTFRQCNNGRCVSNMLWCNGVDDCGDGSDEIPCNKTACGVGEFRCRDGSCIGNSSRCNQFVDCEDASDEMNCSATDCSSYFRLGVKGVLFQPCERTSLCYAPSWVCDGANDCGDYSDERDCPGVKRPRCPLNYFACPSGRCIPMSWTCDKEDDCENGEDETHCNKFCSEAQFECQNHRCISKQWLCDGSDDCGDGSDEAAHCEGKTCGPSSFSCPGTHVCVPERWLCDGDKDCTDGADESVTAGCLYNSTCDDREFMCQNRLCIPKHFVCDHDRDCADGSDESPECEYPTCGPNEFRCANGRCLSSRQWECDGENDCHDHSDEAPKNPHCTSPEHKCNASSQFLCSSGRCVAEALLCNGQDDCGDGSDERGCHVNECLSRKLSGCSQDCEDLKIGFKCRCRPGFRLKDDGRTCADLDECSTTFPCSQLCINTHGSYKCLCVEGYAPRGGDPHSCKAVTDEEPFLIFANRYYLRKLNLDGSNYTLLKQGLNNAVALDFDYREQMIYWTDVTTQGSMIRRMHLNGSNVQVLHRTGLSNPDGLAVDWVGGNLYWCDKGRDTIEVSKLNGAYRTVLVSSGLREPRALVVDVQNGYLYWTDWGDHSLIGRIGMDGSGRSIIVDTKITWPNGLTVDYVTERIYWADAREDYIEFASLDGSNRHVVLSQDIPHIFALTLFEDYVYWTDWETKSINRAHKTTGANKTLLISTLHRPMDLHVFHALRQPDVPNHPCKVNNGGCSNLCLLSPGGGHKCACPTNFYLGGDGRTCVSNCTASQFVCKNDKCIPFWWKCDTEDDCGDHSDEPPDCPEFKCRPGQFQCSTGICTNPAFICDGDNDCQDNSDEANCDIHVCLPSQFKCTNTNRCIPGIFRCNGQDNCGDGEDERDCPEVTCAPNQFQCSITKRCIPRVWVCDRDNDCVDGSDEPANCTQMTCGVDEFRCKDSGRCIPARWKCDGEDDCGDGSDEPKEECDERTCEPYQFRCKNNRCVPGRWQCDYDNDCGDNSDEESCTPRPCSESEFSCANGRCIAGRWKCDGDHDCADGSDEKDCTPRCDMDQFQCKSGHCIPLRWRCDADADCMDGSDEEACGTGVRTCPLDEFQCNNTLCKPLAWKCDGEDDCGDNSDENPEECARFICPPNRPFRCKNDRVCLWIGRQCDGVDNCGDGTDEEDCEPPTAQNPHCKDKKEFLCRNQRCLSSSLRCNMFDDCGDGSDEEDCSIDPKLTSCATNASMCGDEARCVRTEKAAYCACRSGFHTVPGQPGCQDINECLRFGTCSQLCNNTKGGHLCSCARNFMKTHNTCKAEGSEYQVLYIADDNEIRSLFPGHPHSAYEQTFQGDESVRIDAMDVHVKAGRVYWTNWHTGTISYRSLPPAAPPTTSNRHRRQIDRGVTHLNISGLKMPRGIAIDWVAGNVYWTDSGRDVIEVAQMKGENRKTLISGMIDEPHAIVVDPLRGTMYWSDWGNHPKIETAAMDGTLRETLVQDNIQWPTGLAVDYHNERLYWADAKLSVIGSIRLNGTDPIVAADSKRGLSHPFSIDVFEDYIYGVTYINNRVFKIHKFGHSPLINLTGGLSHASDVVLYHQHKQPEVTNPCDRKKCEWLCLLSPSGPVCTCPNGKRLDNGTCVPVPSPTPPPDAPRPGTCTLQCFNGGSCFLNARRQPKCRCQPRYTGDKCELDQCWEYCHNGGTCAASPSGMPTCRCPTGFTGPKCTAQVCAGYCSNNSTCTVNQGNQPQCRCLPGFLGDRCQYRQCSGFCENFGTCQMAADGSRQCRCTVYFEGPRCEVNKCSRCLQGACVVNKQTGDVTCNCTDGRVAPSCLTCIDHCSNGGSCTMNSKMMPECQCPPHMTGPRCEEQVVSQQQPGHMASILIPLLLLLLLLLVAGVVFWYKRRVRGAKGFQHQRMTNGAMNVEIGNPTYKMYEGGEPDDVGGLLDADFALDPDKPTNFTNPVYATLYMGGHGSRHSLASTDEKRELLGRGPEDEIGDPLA

In turn, insulin (ligand) registered an ED50 for blocking IGFBP-3-induced inhibition of DNA synthesis in Mv1Lu cells in experiment [1] of 1 nM.

“cell surface annexin VI of mouse embryonic fibroblasts (MEF and PEA-13 cells) (from UniProt P14824 2-673) (receptor)” showed a percent of LRP-1-bound 125I-α2M* co-immunoprecipitated by anti-annexin VI IgG in experiment [2] of 40%.

“(Q^3A^4Y^15L^16) IGF-I (from UniProt P05019 49-118) (ligand)”: the ED50 for blocking IGFBP-3-induced growth inhibition in Mv1Lu cells in experiment [3] came out at 0.3 nM.

Take “human transferrin (from UniProt P02787 20-698) (ligand)”: the IC50 in experiment [4] came out at 500 nM.

In turn, “human low density lipoprotein (LDL) (from UniProt P04114 28-4563)” displayed an IC50 in experiment [5] of 5 µg/mL.

For the substance “native α2M (human) (from UniProt P01023 24-1474) (ligand)”, in experiment [6], the IC50 worked out at 150 nM.

For “human receptor-associated protein (RAP) (from UniProt P30533 35-357) (ligand)”, the IC50 in experiment [7] turned out to be 5 µg/mL.

With “bovine lactoferrin (from UniProt P24627 20-708) (ligand)”, in experiment [4], the IC50 was found to be 50 nM.

By IC50 is commonly meant the concentration at which inhibition is half-maximal. A lower IC50 goes with inhibition by little substance.
